# Target: And-1 HMG domain (UniProt O75717)
# Assay: FLAG-SepB IP, GST-HMG blot
# Details: reference: wild-type SepB; sites T826
# Chain of UniProt O75717 (O75717 330-984 T826A): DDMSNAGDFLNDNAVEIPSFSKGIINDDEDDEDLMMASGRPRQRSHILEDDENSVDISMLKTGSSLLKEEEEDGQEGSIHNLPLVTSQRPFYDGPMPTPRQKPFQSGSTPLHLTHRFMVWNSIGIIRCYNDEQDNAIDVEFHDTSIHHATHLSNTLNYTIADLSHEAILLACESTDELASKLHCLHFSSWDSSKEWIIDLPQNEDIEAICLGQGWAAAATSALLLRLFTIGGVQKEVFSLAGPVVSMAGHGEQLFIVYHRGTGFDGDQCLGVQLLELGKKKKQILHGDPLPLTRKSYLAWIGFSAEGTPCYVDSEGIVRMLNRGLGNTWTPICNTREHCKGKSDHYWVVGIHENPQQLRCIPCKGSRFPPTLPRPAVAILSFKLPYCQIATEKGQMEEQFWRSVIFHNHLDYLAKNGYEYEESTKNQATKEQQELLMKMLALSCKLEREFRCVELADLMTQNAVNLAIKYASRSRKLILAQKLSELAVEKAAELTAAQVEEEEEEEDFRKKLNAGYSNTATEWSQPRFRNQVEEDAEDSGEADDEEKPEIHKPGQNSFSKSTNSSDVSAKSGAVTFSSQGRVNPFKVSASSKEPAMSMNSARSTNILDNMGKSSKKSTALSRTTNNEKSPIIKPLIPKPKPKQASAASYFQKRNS
substance,measurement,value
"And-1 SepB domain, 330-984 (from UniProt O75717) SepB T826A",binding against the reference,stronger

# From paper PMC9481708
